Experimental data published in publication PMC7699638.

Target: MBP-ROCK2 (full-length ROCK2 with N-terminal MBP tag) (human), O75116
Assay: SAXS; MBP-ROCK2 alone; 25 mM HEPES pH 7.4, 25 °C, concentration series 0.3–1.1 mg/ml; molecular mass from the scattering extrapolated to zero angle
Settings: remark: other sources report otherwise

B1: MBP-ROCK2 (full-length ROCK2 with N-terminal MBP tag), O75116 1-1388 (enzyme)
chain: MSRPPPTGKMPGAPETAPGDGAGASRQRKLEALIRDPRSPINVESLLDGLNSLVLDLDFPALRKNKNIDNFLNRYEKIVKKIRGLQMKAEDYDVVKVIGRGAFGEVQLVRHKASQKVYAMKLLSKFEMIKRSDSAFFWEERDIMAFANSPWVVQLFYAFQDDRYLYMVMEYMPGGDLVNLMSNYDVPEKWAKFYTAEVVLALDAIHSMGLIHRDVKPDNMLLDKHGHLKLADFGTCMKMDETGMVHCDTAVGTPDYISPEVLKSQGGDGFYGRECDWWSVGVFLYEMLVGDTPFYADSLVGTYSKIMDHKNSLCFPEDAEISKHAKNLICAFLTDREVRLGRNGVEEIRQHPFFKNDQWHWDNIRETAAPVVPELSSDIDSSNFDDIEDDKGDVETFPIPKAFVGNQLPFIGFTYYRENLLLSDSPSCRETDSIQSRKNEESQEIQKKLYTLEEHLSNEMQAKEELEQKCKSVNTRLEKTAKELEEEITLRKSVESALRQLEREKALLQHKNAEYQRKADHEADKKRNLENDVNSLKDQLEDLKKRNQNSQISTEKVNQLQRQLDETNALLRTESDTAARLRKTQAESSKQIQQLESNNRDLQDKNCLLETAKLKLEKEFINLQSALESERRDRTHGSEIINDLQGRICGLEEDLKNGKILLAKVELEKRQLQERFTDLEKEKSNMEIDMTYQLKVIQQSLEQEEAEHKATKARLADKNKIYESIEEAKSEAMKEMEKKLLEERTLKQKVENLLLEAEKRCSLLDCDLKQSQQKINELLKQKDVLNEDVRNLTLKIEQETQKRCLTQNDLKMQTQQVNTLKMSEKQLKQENNHLMEMKMNLEKQNAELRKERQDADGQMKELQDQLEAEQYFSTLYKTQVRELKEECEEKTKLGKELQQKKQELQDERDSLAAQLEITLTKADSEQLARSIAEEQYSDLEKEKIMKELEIKEMMARHKQELTEKDATIASLEETNRTLTSDVANLANEKEELNNKLKDVQEQLSRLKDEEISAAAIKAQFEKQLLTERTLKTQAVNKLAEIMNRKEPVKRGNDTDVRRKEKENRKLHMELKSEREKLTQQMIKYQKELNEMQAQIAEESQIRIELQMTLDSKDSDIEQLRSQLQALHIGLDSSSIGSGPGDAEADDGFPESRLEGWLSLPVRNNTKKFGWVKKYVIVSSKKILFYDSEQDKEQSNPYMVLDIDKLFHVRPVTQTDVYRADAKEIPRIFQILYANEGESKKEQEFPVEPVGEKSNYICHKGHEFIPTLYHFPTNCEACMKPLWHMFKPPPALECRRCHIKCHKDHMDKKEEIIAPCKVYYDISTAKNLLLLANSTEEQQKWVSRLVKKIPKKPPAPDPFARSSPRTSMKIQQNQSIRRPSRQLAPNKPS
B1 was tested, and the stoichiometry N was 2.
